The target of test [1] is T1, human PD-L1 Fc fusion (hPD-L1-Fc) (human, UniProt Q9NZQ7 19-238, limits assumed).
T1 construct: not shown: Fc part
The experiment in a line: blocking ELISA: antibody titrated + biotin-hPD-1-Fc 1 ug/mL on coated hPD-L1-Fc. The text has this:
The plate was developed with TMB and Stop buffer, the absorbance at 450 nm was read using SpectraMax plate reader. The A450 absorbance was normalized to the control that without antibody for the percentage values. The curve and IC₅₀ were generated using GraphPad Prism software.
(In general: An ELISA detects its analyte on a solid surface through an enzyme-linked reagent.)

For test [2], the target named is T2, cynomolgus PD-L1, his tagged (cPD-L1-his) (cynomolgus (Macaca fascicularis), UniProt G7PSE7 19-238).
T2 construct: also called cyPD-L1-His; Cyno PD-L1
The experiment in a line: ELISA on cynomolgus PD-L1.

Test [3] concerns the target T3, human PD-L1, his tagged (hPD-L1-his) (human, UniProt Q9NZQ7 19-238, limits assumed).
T3 construct: also called huPD-L1-His; recombinant human PD-L1; not shown: his tag
The experiment in a line: BLI (ForteBio Octet), mouse IgG on AMC sensor, hPD-L1-his analyte, 1:1 fit. On the procedure: (§1) Screening of purified hybridoma antibodies. ForteBio octet binding of purified antibodies to recombinant hPD-L1-his and cPD-L1-his was measured. Mouse IgGs purified from hybridoma supernatant were captured on AMC (Anti-mouse IgG-Capture) Biosensor. hPD-L1-his or cPD-L1-his analytes were titrated from 100 nM in a 2× series dilution. The signal was subtracted with buffer reference and aligned to the baseline. KD, Kon and Koff values were generated using a 1:1 fitting model. […] The X-axes represent assay time in seconds, and the Y-axes represent binding signal on the biosensor. Each line represents the real time signal of antigen association and dissociation at the given antigen concentration in the assay (e.g., the top line represents the signal of the highest antigen concentration in the assay, the second top line represents the second highest concentration in the assay). The vertical dashed line represents the time point that the assay was moved from association step to the dissociation step. All the ForteBio/Octet assays were using standard/conventional settings and the graphs provided in the figures will be understood by one of skill in the art.
(In general: In BLI a coated tip is dipped into the sample, and binding shifts an interference pattern.)

The target in test [4] is T2, cynomolgus PD-L1, his tagged …. The test can be described thus: BLI (ForteBio Octet), mouse IgG on AMC sensor, cPD-L1-his analyte, 1:1 fit. On the procedure:
as §1

Test [5] shares this target. The experiment in a line: BLI (ForteBio Octet), cPD-L1-his. Here is the method:
(§2) Characterization of chimeric anti-PD-L1 antibodies. ForteBio octet binding of purified chimeric antibodies and recombinant hPD-L1-his and cPD-L1-his was measured. Chimeric human antibodies were captured on AHC (Anti-human IgG-Capture) Biosensor, hPD-L1-his or cPD-L1-his analytes were titrated from 100 nM in a 2× series dilution. The buffer reference was subtracted from the signal and aligned to the baseline. KD, Kon and Koff values were generated using 1:1 fitting model as described above. […]

Test [6] deals with T3, human PD-L1, his tagged (hPD-L1-his). The experiment in a line: BLI (ForteBio Octet), hPD-L1-his. On the procedure: as §2
Test [7] has the same target. The test can be described thus: BLI (ForteBio Octet), hPD-L1-his. On the procedure: Characterization of chimeric anti-PD-L1 antibodies. ForteBio octet binding of purified chimeric antibodies and recombinant hPD-L1-his and cPD-L1-his was measured. Chimeric human antibodies were captured on AHC (Anti-human IgG-Capture) Biosensor, hPD-L1-his or cPD-L1-his analytes were titrated from 100 nM in a 2× series dilution. The buffer reference was subtracted from the signal and aligned to the baseline. KD, Kon and Koff values were generated using 1:1 fitting model as described above.
Selected h769 antibodies were tested in the blocking ELISA as described in Example 3 herein. […] Selected h769 humanized PD-L1 antibodies were characterized following removal of the deamidation motif in CDR-L3. FIG. 25 depicts the ForteBio octet binding of purified humanized antibodies and recombinant hPD-L1-his was measured.
This is another data set of the same source.

Positions count from the first letter of the chain named. Numbers in names are those of the source. Read-outs that look alike come from different tables or passages of the source.

T2 sequence (G7PSE7 entry or part of it limits assumed, form in doubt): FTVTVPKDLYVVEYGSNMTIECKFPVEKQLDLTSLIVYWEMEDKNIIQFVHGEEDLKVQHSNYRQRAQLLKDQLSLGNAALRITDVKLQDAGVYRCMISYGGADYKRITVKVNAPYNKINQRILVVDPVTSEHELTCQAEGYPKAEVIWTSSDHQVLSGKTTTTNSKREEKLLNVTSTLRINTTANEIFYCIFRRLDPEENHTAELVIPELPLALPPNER
T1 sequence (Q9NZQ7 19-238 limits assumed): as the sequence (G7PSE7 entry or part of it limits assumed, form in doubt) above, with T33A, S34A, N62S, Q68R, R82Q, L173F, A185T, I192T, L215H counted along it
T3 sequence (Q9NZQ7 19-238 limits assumed): as the sequence (G7PSE7 entry or part of it limits assumed, form in doubt) above, with T33A, S34A, N62S, Q68R, R82Q, L173F, A185T, I192T, L215H counted along it

B1: PAL759 (hybridoma 13F1.B7) (antibody, V domains shown)
VH: EVQLQESGAELVRPGASVKLSCKASGYSFTDYYINWVKQRPGQGLEWIARIYPGSGNTYYNEKFKGKATLTAEKSSITAYMQLSSLTSEDSAVYFCARSYYYGSSYLFDYWGQGTTLTVSS
VL: DILLTQSPAILSVSPGERVSFSCRASQSIGTSIHWYQQRTNGSPRLLIKYASESISGIPSRFSGSGSGTDFTLSINSVESEDIGDYYCQQSNNWPFTFGSGTKLEIK
notes: Mouse IgG purified from hybridoma supernatant
In the case of B1, in test [1], the IC50 (in general, the concentration needed to halve the response being measured) was determined as 4.64 nM. Also, in test [2], the “ELISA cyno, Fold over Bkg” value is 13.1 fold over background. Binding in test [3] was characterised by a dissociation constant (Kd) of 1.14 nM.

B2: PAL785 (hybridoma 16G1.A5) (antibody, V domains shown)
VH: EVQLQESGPELVKPGTSVKMSCKASGYTFTSYVMHWVKQRPGQGLEWIGYINPYNDGSKYNEKFKGKATLTSDTSSSTAYMELSSLTSEDSAVYYCAKQTLDFWGQGTSVTVST
VL: DIVLTQSPASLAVSLGQRATISCRASESVEFYGTTLMQWYQQKPGQPPKLLIYAASNVESGVPARFSGSGSGTDFSLNIHPVEEGDIGMYFCQQSRKVPYTFGGGTKLEIK
notes: as for B1
As for B2, in test [1], the IC50 worked out at 0.68 nM. The “ELISA cyno, Fold over Bkg” value in test [2] came out at 4.98 fold over background. The Kd (in general, the concentration at which binding is half-saturated) is 1.02 nM in test [3] and 0.642 nM in test [4].

B3: h769-IF3 (humanized 769-hIgG1 variant) (antibody, V domains shown)
VH: EVQLVQSGAEVKKPGATVKISCKVSGFNIKDTYMHWVQQAPGKGLEWMGLIDPANDNTIYAEKFQGRVTITADTSTDTAYMELSSLRSEDTAVYYCAREGYGGSYGEGYWGQGTLVTVSS
VL: EIVMTQSPPTLSLSPGERVTLSCRASQSVSNDLSWYQQKPGQAPRLLIYYASIRFTGIPARFSGSGSGTDFTLTISSLQPEDFAVYYCQQDYNSPWTFGQGTKVEIK
Regarding B3, in test [5], binding was put at a Kd of 2.92 nM; the koff (as a rule, the first-order rate constant of dissociation) was 0.000602 s⁻¹; the kon (in general, the rate constant with which the complex forms) was determined as 208000 M⁻¹ s⁻¹. Also, in test [6], binding was characterised by a dissociation constant (Kd) of 2.64 nM, the off-rate constant (koff) is 0.000871 s⁻¹ and the kon was found to be 330000 M⁻¹ s⁻¹.

B4: h769-N93 (humanized 769-hIgG1 variant keeping N93 in CDR-L3) (antibody, V domains shown)
VH: B3 VH
VL: B3 VL
In test [7], B4 gave a koff of 0.00058 s⁻¹ and a kon of 292000 M⁻¹ s⁻¹.

B5: h769-N93A (humanized 769-hIgG1 variant, N93A in CDR-L3) (antibody, V domains shown)
VH: B3 VH
VL: B3 VL with N93A
notes: Human IgG1
In test [7], B5 showed a Kd of 1.46 nM, a koff of 0.000414 s⁻¹ and a kon of 284000 M⁻¹ s⁻¹.

B6: h769-tm3 (humanized 769-hIgG1 variant) (antibody, V domains shown)
VH: B3 VH
VL: B3 VL with Y87F
For the molecule B6, in test [5], the Kd was 3.11 nM, the koff came out at 0.00065 s⁻¹ and the kon is 211000 M⁻¹ s⁻¹. In test [6], this molecule registered a Kd of 2.95 nM, a koff of 0.000904 s⁻¹ and a kon of 311000 M⁻¹ s⁻¹.

B7: h769-tm2 (humanized 769-hIgG1 variant) (antibody, V domains shown)
VH: B3 VH
VL: B3 VL with S67Y
In test [5], B7 had a Kd of 3.01 nM, a koff of 0.000593 s⁻¹ and a kon of 204000 M⁻¹ s⁻¹. In test [6], this molecule displayed a Kd of 2.48 nM, a koff of 0.000818 s⁻¹ and a kon of 331000 M⁻¹ s⁻¹.

B8: PAL769 (hybridoma 2C1.C8) (antibody, V domains shown)
VH: EVQLQESGAELVKPGASVTLSCTASGFNIKDTYMHWVKQRPEQGLEWIGRIDPANDNTKYDPKFQDKATITADTSSDTAYLRLSSLTSEDTAVYYCAREGYGGSYGEGYWGQGTTLTVSS
VL: SIVMTQTPKFLLVSAGDRVTITCKASQSVSNDVIWYQQKPGQSPKLLIYYASIRFTGVPDRFAGSGYGTDFTFTINTVQAEDLAVYFCQQDYNSPWTFGGGTKLEIK
notes: as for B1
Turning to B8, the IC50 in test [1] worked out at 0.51 nM. The “ELISA cyno, Fold over Bkg” value in test [2] turned out to be 39.5 fold over background. The Kd was found to be 0.758 nM in test [3] and 1.3 nM in test [4].

B9: PAL752 (hybridoma 4G6.H4) (antibody, V domains shown)
VH: EVQLQESGAELARPGASVKLSCKASGHAFTSDSINWVKQRIGQGLEWIGEIYPRSGNPYYNEKFKGKATLTADKSSSTAYMELRSLTSEDSAVYFCATDYYGRYFDVWGTGTTVTVSS
VL: DIQMTQSSFSFSVSLGDRVTIICKASEDIYNRLAWYQQKPGNTPRLLISGATSLETGVPSRFSGSGSGKDYTLSITSLQTEDVATYYCQQYWSTPWTFGGGTKLEIK
notes: as for B1
With B9, the IC50 in test [1] amounted to 2.53 nM. In addition, the “ELISA cyno, Fold over Bkg” value in test [2] turned out to be 18.4 fold over background. The Kd in test [3] came to 0.789 nM; in test [4], 4.03 nM.

B10: PAL787(3D10) (hybridoma CKH-3D10) (antibody, V domains shown)
VH: QVTLKESGPGILQPSQTLSLTCSFSGFSLSTYGLGVGWIRQPSGKGLEWLANIWWNDDKFYDSVLKSRLTISKDTSNNQVFLKISSVDTSETATYYCAQTLHYYDGIAWFAYWGQGTLVTVSA
VL: DIVMTQSQNFMSTSVGDRVSVTCKASHYVGTFVAWYQQKPGQSPKALIFSTSYRHTGVPDRFTGSGSGTDFTLTISNVQSEDLADYFCQQYYNSPLTFGAGTKLELK
notes: as for B1
As to B10, the IC50 in test [1] was determined as 4.07 nM. Besides, the “ELISA cyno, Fold over Bkg” value in test [2] amounted to 38.2 fold over background. Moreover, the Kd in test [3] turned out to be 0.277 nM; in test [4], 0.283 nM.

B11: PAL771 (hybridoma 2D10.E2.B9) (antibody, V domains shown)
VH: EVQLQESGAELVKPGASVKLSCTASGFNIKDTYMHWVKQRPEQGLEWIGRIDPANGNTKYDPKFPGKATITADTSSNTAYLQLSSLTSEDAAVYYCARPFNYRFYDVYYFDYWGQGTTLTVST
VL: QIVLTQSPAIMSASPGEKVTMTCSASSSVSYMYWYQQKPGSSPRLLIYDTSNLASGVPLRFSGSGSGTSYSLTLSRMEAEDAATYYCQQWSTYPLTFGAGTKLELK
notes: as for B1
For B11, the Kd came to 0.592 nM in test [3] and 1.15 nM in test [4].

B12: PAL771.2 (hybridoma 2D10.E2.H4) (antibody, V domains shown)
VH: B11 VH
VL: B11 VL
Molecule B12 showed a Kd in test [4] of 2.27 nM.

B13: PAL767 (hybridoma 1G7.A8) (antibody, V domains shown)
VH: EVQLQESGPSLVKPSQTLSLTCSVTGDSITSGYWNWIRKFPGNKLEYMGYISYTGSTYYNPSLKRRISITRDTSKNQYYLQLNSVTTEDTATYYCASQGGWLQAMDYWGQGTSVTVSS
VL: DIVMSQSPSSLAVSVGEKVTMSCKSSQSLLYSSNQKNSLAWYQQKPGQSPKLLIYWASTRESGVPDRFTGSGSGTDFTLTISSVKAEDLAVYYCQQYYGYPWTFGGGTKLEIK
notes: as for B1
B13: the IC50 in test [1] worked out at 0.81 nM. Further, the “ELISA cyno, Fold over Bkg” value in test [2] was 36.9 fold over background. Besides, the Kd in test [3] was determined as 0.803 nM; in test [4], 0.0577 nM.

B14: PAL788(3E3) (hybridoma CKH-3E3) (antibody, V domains shown)
VH: QVQLQQPGAELVKPGASVKLSCKASGYTFTSNWMNWVKQRPGRGLEWIGRIHPSDSETHYHQKFKSKATLTVDKSSSTAYIQLSSLTSEDSAVYYCAHSSGDYGRDYWGQGTTLTVSS
VL: NIVLTQSPASLAVSLGQRATISCRASESVDSYGNSFMHWYQQKPGQPPKLLIYLASNLQSGVPARFSGSGSRTDFTLTIDPVEADDAATYYCQQNNEDPWTFGGGTKLEIK
notes: as for B1
As to B14, in test [1], the IC50 was determined as 0.89 nM. The “ELISA cyno, Fold over Bkg” value in test [2] turned out to be 24.8 fold over background. For the same molecule, the Kd in test [3] was found to be 0.188 nM; in test [4] it was 0.392 nM.

These data come from US20240067729A1 (PALLEON PHARMACEUTICALS, published 2024).
